# Measurements from article PMC6821365.
# T1: yedK E105A (Escherichia coli (gene from BL21 …, UniProt P76318 2-222, E105A))
# T1 sequence: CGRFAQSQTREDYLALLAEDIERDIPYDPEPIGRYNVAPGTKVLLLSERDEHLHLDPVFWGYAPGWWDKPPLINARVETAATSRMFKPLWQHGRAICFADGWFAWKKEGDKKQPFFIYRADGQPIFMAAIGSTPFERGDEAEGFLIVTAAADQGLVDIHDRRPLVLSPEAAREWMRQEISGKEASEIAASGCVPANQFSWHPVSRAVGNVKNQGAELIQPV
# T2: yedK R162A (Escherichia coli (gene from BL21 …, UniProt P76318 2-222, R162A))
# T2 sequence: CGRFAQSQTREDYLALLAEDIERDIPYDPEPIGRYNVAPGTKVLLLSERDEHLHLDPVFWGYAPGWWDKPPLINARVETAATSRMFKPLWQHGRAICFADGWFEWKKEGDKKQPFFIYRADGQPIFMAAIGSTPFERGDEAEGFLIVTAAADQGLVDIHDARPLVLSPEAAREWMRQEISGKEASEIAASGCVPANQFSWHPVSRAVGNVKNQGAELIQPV
# T3: yedK C2A (Escherichia coli (gene from BL21 …, UniProt P76318 2-222, C2A))
# T3 sequence: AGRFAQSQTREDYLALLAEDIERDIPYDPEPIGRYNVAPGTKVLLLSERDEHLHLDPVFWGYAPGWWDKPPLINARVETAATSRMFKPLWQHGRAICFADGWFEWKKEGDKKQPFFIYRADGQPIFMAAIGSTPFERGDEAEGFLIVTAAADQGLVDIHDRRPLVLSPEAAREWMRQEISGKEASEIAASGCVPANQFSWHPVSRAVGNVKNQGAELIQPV
# T4: yedK W68A (Escherichia coli (gene from BL21 …, UniProt P76318 2-222, W68A))
# T4 sequence: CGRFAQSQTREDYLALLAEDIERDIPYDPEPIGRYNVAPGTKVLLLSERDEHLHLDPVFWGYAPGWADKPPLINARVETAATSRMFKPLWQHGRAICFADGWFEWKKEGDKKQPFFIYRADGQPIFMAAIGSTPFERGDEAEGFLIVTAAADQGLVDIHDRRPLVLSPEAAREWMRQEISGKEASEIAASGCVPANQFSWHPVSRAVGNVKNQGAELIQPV
# T5: yedK R4A (Escherichia coli (gene from BL21 …, UniProt P76318 2-222, R4A))
# T5 sequence: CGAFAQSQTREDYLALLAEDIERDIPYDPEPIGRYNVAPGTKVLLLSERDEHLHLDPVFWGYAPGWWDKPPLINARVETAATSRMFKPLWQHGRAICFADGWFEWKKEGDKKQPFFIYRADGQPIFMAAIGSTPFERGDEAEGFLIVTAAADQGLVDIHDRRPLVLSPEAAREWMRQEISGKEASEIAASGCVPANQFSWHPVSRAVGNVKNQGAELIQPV
# T6: yedK K70A (Escherichia coli (gene from BL21 …, UniProt P76318 2-222, K70A))
# T6 sequence: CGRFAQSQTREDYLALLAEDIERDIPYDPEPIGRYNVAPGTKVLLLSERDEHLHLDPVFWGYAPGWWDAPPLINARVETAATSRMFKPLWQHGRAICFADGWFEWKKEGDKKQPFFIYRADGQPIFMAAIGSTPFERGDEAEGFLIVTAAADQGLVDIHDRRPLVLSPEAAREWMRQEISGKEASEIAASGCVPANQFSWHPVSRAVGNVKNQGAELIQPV
# T7: yedK R85A (Escherichia coli (gene from BL21 …, UniProt P76318 2-222, R85A))
# T7 sequence: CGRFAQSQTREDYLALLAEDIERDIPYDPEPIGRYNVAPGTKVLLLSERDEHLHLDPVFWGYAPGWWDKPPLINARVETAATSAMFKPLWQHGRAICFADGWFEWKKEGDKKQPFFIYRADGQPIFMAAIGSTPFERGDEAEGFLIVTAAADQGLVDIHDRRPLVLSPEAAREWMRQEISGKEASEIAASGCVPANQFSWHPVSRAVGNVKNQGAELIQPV
# T8: yedK W67A (Escherichia coli (gene from BL21 …, UniProt P76318 2-222, W67A))
# T8 sequence: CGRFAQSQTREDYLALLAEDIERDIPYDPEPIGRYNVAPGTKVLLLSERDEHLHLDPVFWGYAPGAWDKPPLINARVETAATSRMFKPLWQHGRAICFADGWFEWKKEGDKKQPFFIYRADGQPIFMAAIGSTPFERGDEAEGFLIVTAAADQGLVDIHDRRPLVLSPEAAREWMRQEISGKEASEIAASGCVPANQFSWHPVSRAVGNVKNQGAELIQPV
# B1: ssDNA (ssDNA)
# DNA: CGGTCGATTC
# Columns and labels:
# Test in all cases: ITC
# yedK E105A = target: T1, yedK E105A
# yedK R162A = target: T2, yedK R162A
# yedK C2A = target: T3, yedK C2A
# yedK W68A = target: T4, yedK W68A
# yedK R4A = target: T5, yedK R4A
# yedK K70A = target: T6, yedK K70A
# yedK R85A = target: T7, yedK R85A
# yedK W67A = target: T8, yedK W67A
binder,measurement,setting,value
B1,Kd,yedK E105A,0.12 µM
same,binding result,yedK R162A,no binding
same,Kd,yedK C2A,7.9 µM
same,binding result,yedK W68A,no binding
same,Kd,yedK R4A,34.6 µM
same,Kd,yedK K70A,4 µM
same,Kd,yedK R85A,16.9 µM
same,binding result,yedK W67A,no binding
